Reference: article PMC8144621, “A two-hybrid system reveals previously uncharacterized protein–protein interactions within the Helicobacter pylori NIF iron–sulfur maturation system” (Scientific Reports, 2021)

Tests used:
[1] = molecular target: T1, ApbC-(His)6, purified recombinant (Helicobacter pylori strain 26695, UniProt O24999 1-368); experiment: cross-linking; purified proteins (15 µM) incubated alone or together for 60 min at 25 °C with 10 mM dimethyl suberimidate (DMS), no ATP; SDS 4-20% gradient PAGE, Coomassie; details: both partners purified
T1 construct: H. pylori strain 26695 ApbC/HP0207, whole native hp0207 (apbC) ORF without its stop codon, cloned NdeI-XhoI in pET21b (pET-ApbC); predicted mass with tag 41.1 kDa; The name ApbC-(His)6 and the cloning without stop codon in pET21b put the tag at the C-terminus; the methods of the cross-linking call the protein 'native ApbC'; also called hexahistidine tagged-ApbC^WT; source: E. coli BL21 RIL, …
T1 sequence (looked up): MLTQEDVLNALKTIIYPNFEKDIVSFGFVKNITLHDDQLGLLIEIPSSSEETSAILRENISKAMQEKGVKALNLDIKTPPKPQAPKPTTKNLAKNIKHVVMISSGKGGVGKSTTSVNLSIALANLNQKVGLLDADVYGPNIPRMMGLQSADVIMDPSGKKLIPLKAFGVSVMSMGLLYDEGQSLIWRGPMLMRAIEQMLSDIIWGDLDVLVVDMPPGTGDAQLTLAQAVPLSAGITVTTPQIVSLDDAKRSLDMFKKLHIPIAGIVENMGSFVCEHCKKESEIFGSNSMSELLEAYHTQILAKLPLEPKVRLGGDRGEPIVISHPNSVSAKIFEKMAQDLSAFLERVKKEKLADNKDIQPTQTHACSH

[2] = molecular target: the molecule itself; experiment: as above

B1: Nfu (HP1492), purified recombinant (natural protein, Helicobacter pylori, UniProt O26025 1-89, looked up)
chain: MIEFSDEDLQKPVRIVIEKIRPYLLKDGGNIEVLGVKSMKIYVALEGACKTCSSSKITLKNVIERQLKMDIHPNLEVVCLENAKEFDKL
notes: H. pylori Nfu/HP1492; also called recombinant Nfu; HpNfu
In the case of B1, the binding result [1] is reported as “binds” and the “stoichiometry N” value [2] is reported as 2.
